Paper PMC6547438, “Bacillus subtilis DisA regulates RecA-mediated DNA strand exchange” (Nucleic Acids Research, 2019)

B1: His-tagged DisA (enzyme, Bacillus subtilis, UniProt P37573 1-360, looked up)
chain: MEKEKKGAKHELDLSSILQFVAPGTPLRAGMENVLRANTGGLIVVGYNDKVKEVVDGGFHINTAFSPAHLYELAKMDGAIILSDSGQKILYANTQLMPDATISSSETGMRHRTAERVAKQTGCLVIAISERRNVITLYQENMKYTLKDIGFILTKANQAIQTLEKYKTILDKTINALNALEFEELVTFSDVLSVMHRYEMVLRIKNEINMYIKELGTEGHLIKLQVIELITDMEEEAALFIKDYVKEKIKDPFVLLKELQDMSSYDLLDDSIVYKLLGYPASTNLDDYVLPRGYRLLNKIPRLPMPIVENVVEAFGVLPRIIEASAEELDEVEGIGEVRAQKIKKGLKRLQEKHYLDRQL
B2: RecA (native, untagged) (enzyme, Bacillus subtilis, UniProt P16971 1-348, looked up)
chain: MSDRQAALDMALKQIEKQFGKGSIMKLGEKTDTRISTVPSGSLALDTALGIGGYPRGRIIEVYGPESSGKTTVALHAIAEVQQQGGQAAFIDAEHALDPVYAQKLGVNIEELLLSQPDTGEQALEIAEALVRSGAVDIVVVDSVAALVPKAEIEGDMGDSHVGLQARLMSQALRKLSGAINKSKTIAIFINQIREKVGVMFGNPETTPGGRALKFYSSVRLEVRRAEQLKQGNDVMGNKTKIKVVKNKVAPPFRTAEVDIMYGEGISKEGEIIDLGTELDIVQKSGSWYSYEEERLGQGRENAKQFLKENKDIMLMIQEQIREHYGLDNNGVVQQQAEETQEELEFEE
notes: Bacillus subtilis recombinase RecA; purified protein of 38.0 kDa; The printed mass of 38.0 kDa fits the whole protein; also called native RecA; apo RecA; source: B. subtilis BG214 bearing pBT61-borne recA, over-expressed and purified

Assays:
[1] = biological target: B2; assay: cell-based or functional assay
[2] = biological target: B1; assay: pull-down; His-tagged DisA and native RecA (1.5 μg each) loaded on a 50-μl Ni2+ microcolumn, room temperature, Buffer A (50 mM Tris-HCl pH 7.5, 50 mM NaCl, 10 mM MgCl2, 5% glycerol) with 20 mM imidazole, without ssDNA and ATP; eluted with 1 M NaCl and 400 mM imidazole; SDS-PAGE, Coomassie and Western blot; settings: both partners purified

Binder: B1
- RecA-mediated three-strand DNA exchange with SsbA and RecO in ATPγS, fold reduction at a DisA:RecA molar ratio of 1:48 [1]: ~18 fold

Binder: B2
- binding result [2]: binds
